Among the data in paper doi:10.1101/2025.05.28.656718 are IC50 values, retold here.

For this assay, the target named is His-tagged PKM1 (human) (UniProt P14618). The assay can be described thus: AlphaScreen or HTRF. (In general: Bead proximity is the source of the signal in Alpha formats.)

Sequence of Pep-SP1 (Q6SZW1 whole entry, looked up): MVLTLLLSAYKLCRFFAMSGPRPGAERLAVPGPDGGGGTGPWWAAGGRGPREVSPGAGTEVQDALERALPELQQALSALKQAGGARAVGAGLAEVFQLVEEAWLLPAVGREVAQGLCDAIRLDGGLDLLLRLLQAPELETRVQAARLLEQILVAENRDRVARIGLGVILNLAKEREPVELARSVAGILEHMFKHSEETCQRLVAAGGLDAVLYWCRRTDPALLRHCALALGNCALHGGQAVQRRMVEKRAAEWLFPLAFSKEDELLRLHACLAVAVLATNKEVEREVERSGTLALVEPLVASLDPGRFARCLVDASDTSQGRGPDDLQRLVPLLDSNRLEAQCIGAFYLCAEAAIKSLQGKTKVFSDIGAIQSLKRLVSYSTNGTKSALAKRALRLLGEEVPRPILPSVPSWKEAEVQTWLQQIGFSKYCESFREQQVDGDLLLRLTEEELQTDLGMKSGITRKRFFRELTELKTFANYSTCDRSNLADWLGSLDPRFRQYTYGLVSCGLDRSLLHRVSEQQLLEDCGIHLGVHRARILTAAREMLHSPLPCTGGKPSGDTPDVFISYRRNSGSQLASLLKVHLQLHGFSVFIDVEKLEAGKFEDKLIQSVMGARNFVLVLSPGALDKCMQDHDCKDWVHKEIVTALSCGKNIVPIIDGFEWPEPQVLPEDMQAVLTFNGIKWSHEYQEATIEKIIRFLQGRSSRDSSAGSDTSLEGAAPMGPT

“Pep-SP1 (from UniProt Q6SZW1 645-655) (peptide)”: the IC50 (commonly the concentration at which inhibition is half-maximal) is 1.07 µM.
